From publication PMC12866851, “ACSL5 Regulates Glucose Metabolism and Chemotherapy Sensitivity in Colorectal Cancer Cells under Glutamine Deficiency” (Advanced Science, 2025) come the findings set out here.

This data set deals with the molecule itself. The data set can be described thus: cross-linking; HCT116 cells (shctrl or shACSL5) treated without or with DSS crosslinker; whole cell lysates, Western blot against IDH2; dimer and monomer of IDH2. (In western blotting, separated proteins are transferred to a membrane and probed.)

B1: isocitrate dehydrogenase 2 (IDH2) (enzyme, human (endogenous in HCT116), UniProt P48735 40-452, looked up)
chain: ADKRIKVAKPVVEMDGDEMTRIIWQFIKEKLILPHVDIQLKYFDLGLPNRDQTDDQVTIDSALATQKYSVAVKCATITPDEARVEEFKLKKMWKSPNGTIRNILGGTVFREPIICKNIPRLVPGWTKPITIGRHAHGDQYKATDFVADRAGTFKMVFTPKDGSGVKEWEVYNFPAGGVGMGMYNTDESISGFAHSCFQYAIQKKWPLYMSTKNTILKAYDGRFKDIFQEIFDKHYKTDFDKNKIWYEHRLIDDMVAQVLKSSGGFVWACKNYDGDVQSDILAQGFGSLGLMTSVLVCPDGKTIEAEAAHGTVTRHYREHQKGRPTSTNPIASIFAWTRGLEHRGKLDGNQDLIRFAQMLEKVCVETVESGAMTKDLAGCIHGLSNVKLNEHFLNTTDFLDTIKSNLDRALGRQ
notes: IDH2, mitochondrial isocitrate dehydrogenase 2, endogenous in human HCT116 cells; source: endogenous, HCT116 lysate
In general, stoichiometry N refers to the number of molecules, sites or subunits per partner or assembly. For B1, the “stoichiometry N” value is 2.
